# Literature values as cited in paper PMC3569056.
# Target: Cys22 (UniProt position 23, FIKPTCPYCRR)
# Assay: chemical modification
substance,measurement,value
"Glutaredoxin 1 (hGrx1, thioltransferase) (Homo sapiens)",pKa,3.5
